The results in this text go back to article PMC6381605, “NR4A Nuclear Receptors Target Poly-ADP-Ribosylated DNA-PKcs Protein to Promote DNA Repair”.

The target in this data set is NR4A2 R319A (UniProt Q06219 1-598, R319A). The data set is described as follows: EMSA; EMSA: 1 ug protein, 10 mM Tris pH 8, 50 mM NaCl, 1 mM EDTA, 5% glycerol, 5 mM DTT, 20 ng/ul dIdC, 1.25 mg/ml BSA, 20 min room temperature; 5% PAGE 0.25x TBE. PAR dot blots left out (PAR is not a defined nucleic acid). Conditions: protein: recombinant; tags: GST tag cleaved (PreScission); label: 32P (alpha-32P-dCTP Klenow fill-in); 5' overhang 4 nt (GATC) on both ends before Klenow fill-in.
Chain of NR4A2 R319A (Q06219 whole entry R319A): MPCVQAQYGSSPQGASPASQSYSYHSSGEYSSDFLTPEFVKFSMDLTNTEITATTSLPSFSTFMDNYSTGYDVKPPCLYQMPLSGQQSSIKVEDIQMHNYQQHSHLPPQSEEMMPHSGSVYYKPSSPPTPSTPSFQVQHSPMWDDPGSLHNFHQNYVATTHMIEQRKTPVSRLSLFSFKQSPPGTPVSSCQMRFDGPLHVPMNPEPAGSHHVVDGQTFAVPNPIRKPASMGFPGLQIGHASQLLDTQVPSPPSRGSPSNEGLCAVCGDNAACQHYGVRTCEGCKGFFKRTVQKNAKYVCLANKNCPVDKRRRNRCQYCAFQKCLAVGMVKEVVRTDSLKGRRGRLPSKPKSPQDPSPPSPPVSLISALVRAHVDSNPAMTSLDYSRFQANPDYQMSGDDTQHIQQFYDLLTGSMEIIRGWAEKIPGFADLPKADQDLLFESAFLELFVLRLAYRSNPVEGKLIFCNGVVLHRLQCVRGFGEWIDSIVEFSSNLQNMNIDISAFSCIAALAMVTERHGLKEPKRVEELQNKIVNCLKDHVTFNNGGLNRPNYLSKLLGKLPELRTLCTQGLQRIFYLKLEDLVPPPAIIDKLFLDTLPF

B1: NBRE (dsDNA)
DNA 1: GATCCTCGTGCGAAAAGGTCAAGCGCTA
DNA 2: GATCTAGCGCTTGACCTTTTCGCACGAG
With B1, the binding result is listed as “no binding”.
